Measurements published in IntAct's records for PubMed 29892012.

B1: RNA-binding protein 3 (Homo sapiens), P98179 (parent)
chain: MSSEEGKLFVGGLNFNTDEQALEDHFSSFGPISEVVVVKDRETQRSRGFGFITFTNPEHASVAMRAMNGESLDGRQIRVDHAGKSARGTRGGGFGAHGRGRSYSRGGGDQGYGSGRYYDSRPGGYGYGYGRSRDYNGRNQGGYDRYSGGNYRDNYDN
B2: ADP/ATP translocase 3 (Homo sapiens), P12236 (parent)
chain: MTEQAISFAKDFLAGGIAAAISKTAVAPIERVKLLLQVQHASKQIAADKQYKGIVDCIVRIPKEQGVLSFWRGNLANVIRYFPTQALNFAFKDKYKQIFLGGVDKHTQFWRYFAGNLASGGAAGATSLCFVYPLDFARTRLAADVGKSGTEREFRGLGDCLVKITKSDGIRGLYQGFSVSVQGIIIYRAAYFGVYDTAKGMLPDPKNTHIVVSWMIAQTVTAVAGVVSYPFDTVRRRMMMQSGRKGADIMYTGTVDCWRKIFRDEGGKAFFKGAWSNVLRGMGGAFVLVLYDELKKVI
B3: AP-1 complex subunit sigma-2 (Homo sapiens), P56377 (parent)
chain: MQFMLLFSRQGKLRLQKWYVPLSDKEKKKITRELVQTVLARKPKMCSFLEWRDLKIVYKRYASLYFCCAIEDQDNELITLEIIHRYVELLDKYFGSVCELDIIFNFEKAYFILDEFLLGGEVQETSKKNVLKAIEQADLLQEEAETPRSVLEEIGLT
B4: Melanoma-associated antigen 8 (Homo sapiens), P43361 (parent)
chain: MLLGQKSQRYKAEEGLQAQGEAPGLMDVQIPTAEEQKAASSSSTLIMGTLEEVTDSGSPSPPQSPEGASSSLTVTDSTLWSQSDEGSSSNEEEGPSTSPDPAHLESLFREALDEKVAELVRFLLRKYQIKEPVTKAEMLESVIKNYKNHFPDIFSKASECMQVIFGIDVKEVDPAGHSYILVTCLGLSYDGLLGDDQSTPKTGLLIIVLGMILMEGSRAPEEAIWEALSVMGLYDGREHSVYWKLRKLLTQEWVQENYLEYRQAPGSDPVRYEFLWGPRALAETSYVKVLEHVVRVNARVRISYPSLHEEALGEEKGV
partner: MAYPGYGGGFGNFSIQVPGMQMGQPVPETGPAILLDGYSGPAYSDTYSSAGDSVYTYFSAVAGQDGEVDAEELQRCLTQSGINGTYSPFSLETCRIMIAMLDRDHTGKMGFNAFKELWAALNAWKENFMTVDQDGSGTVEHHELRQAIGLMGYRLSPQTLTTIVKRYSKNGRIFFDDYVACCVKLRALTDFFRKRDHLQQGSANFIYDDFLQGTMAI

Variants of: B1
Conditions: with snrpa_human SNRPA

Row | Variant | effect of a mutation on the interaction
1 | MSSEEGKLFVGGLNFNTDEQALEDHFSSFGPISEVVVVKDRETQRSRGFGFITFTNPEHASVAMRAMNGESLDGRQIRVDHAGKSARGTRGGGFGAHGRGRSYSRGGGDQGYGSGRYYDSRPGGYGYGYGRSRDYNGRNQGGYDHYSGGNYRDNYDN [R145H] | with no effect

Variants of: B1
Conditions: with rbmx_human RBMX

Row | Variant | effect of a mutation on the interaction
2 | MSSEEGKLFVGGLNFNTDEQALEDHFSSFGPISEVVVVKDRETQRSRGFGFITFTNPEHASVAMRAMNGESLDGRQIRVDHAGKSARGTRGGGFGAHGRGRSYSRGGGDQGYGSGRYYDSRPGGYGYGYGRSRDYNGRNQGGYDHYSGGNYRDNYDN [R145H] | with no effect

Variants of: B2
Conditions: with ap2b1_human AP2B1, P63010
Sequence of ap2b1_human AP2B1, P63010 (P63010 whole entry): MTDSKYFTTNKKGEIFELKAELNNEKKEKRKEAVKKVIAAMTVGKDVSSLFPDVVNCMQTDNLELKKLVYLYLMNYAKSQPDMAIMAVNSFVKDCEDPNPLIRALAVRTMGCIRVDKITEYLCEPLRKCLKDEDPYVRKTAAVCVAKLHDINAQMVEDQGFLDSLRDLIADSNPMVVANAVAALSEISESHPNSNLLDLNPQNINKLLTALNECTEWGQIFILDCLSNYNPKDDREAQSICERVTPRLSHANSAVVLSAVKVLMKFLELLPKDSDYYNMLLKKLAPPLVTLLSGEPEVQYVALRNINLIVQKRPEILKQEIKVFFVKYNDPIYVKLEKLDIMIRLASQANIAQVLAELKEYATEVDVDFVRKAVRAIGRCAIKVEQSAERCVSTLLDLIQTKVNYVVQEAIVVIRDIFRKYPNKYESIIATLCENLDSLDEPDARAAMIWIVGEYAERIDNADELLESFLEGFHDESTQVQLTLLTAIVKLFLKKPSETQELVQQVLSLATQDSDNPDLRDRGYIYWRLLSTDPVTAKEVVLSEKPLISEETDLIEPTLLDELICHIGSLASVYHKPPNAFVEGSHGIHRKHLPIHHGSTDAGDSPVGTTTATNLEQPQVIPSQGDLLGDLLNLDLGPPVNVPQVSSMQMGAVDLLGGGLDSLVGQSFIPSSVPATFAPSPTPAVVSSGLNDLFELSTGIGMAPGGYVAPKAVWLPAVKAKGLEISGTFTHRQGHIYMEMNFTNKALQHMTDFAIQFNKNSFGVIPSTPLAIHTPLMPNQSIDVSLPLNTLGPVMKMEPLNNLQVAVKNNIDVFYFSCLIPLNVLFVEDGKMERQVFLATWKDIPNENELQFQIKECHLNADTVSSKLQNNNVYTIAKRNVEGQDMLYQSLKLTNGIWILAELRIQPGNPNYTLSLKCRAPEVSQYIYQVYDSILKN

Row | Variant | effect of a mutation on the interaction
3 | MTEQAISFAKDFLAGGIAAAISKTAVAPIERVKLLLQVQHASKQIAADKQYKGIVDCIVRIPKEQGVLSFWRGNLANVIRYFPTQALNFAFKDKYKQIFLGGVDKHTQFWRYFAGNLASGGAAGATSLCFVYPLDFARTRLAADVGKSGTEREFRGLGDCLVKITKSDGIRGLYQGFSVSVQGIIIYRAAYFGVYDTAKGMLPDPKNTHIVVSWMIAQTVMAVAGVVSYPFDTVRRRMMMQSGRKGADIMYTGTVDCWRKIFRDEGGKAFFKGAWSNVLRGMGGAFVLVLYDELKKVI [T221M] | with no effect

Variants of: B3
Conditions: with ap1g1_human AP1G1, O43747
Sequence of ap1g1_human AP1G1, O43747 (O43747 whole entry): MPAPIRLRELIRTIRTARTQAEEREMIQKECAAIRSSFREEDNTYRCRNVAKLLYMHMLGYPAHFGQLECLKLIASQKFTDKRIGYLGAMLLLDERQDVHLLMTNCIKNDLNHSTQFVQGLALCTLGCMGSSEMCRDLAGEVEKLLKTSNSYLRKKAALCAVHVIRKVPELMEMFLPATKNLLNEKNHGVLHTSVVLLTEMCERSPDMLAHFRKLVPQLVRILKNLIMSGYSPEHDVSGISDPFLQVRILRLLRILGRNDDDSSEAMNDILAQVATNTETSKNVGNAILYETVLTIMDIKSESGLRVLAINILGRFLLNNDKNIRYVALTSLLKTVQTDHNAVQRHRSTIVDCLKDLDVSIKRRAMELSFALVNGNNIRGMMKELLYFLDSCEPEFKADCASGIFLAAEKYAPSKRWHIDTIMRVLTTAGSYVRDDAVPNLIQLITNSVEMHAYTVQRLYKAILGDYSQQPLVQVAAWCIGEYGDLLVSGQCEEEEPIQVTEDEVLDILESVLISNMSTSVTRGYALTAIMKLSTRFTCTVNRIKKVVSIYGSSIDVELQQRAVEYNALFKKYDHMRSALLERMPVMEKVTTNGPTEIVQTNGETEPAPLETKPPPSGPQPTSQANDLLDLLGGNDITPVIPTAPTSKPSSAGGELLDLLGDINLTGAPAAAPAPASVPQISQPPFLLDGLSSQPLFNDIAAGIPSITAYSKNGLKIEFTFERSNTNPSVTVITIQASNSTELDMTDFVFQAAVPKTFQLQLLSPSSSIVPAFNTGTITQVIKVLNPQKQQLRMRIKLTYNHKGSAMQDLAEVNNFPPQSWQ

Row | Variant | effect of a mutation on the interaction
4 | MQFMLLFSCQGKLRLQKWYVPLSDKEKKKITRELVQTVLARKPKMCSFLEWRDLKIVYKRYASLYFCCAIEDQDNELITLEIIHRYVELLDKYFGSVCELDIIFNFEKAYFILDEFLLGGEVQETSKKNVLKAIEQADLLQEEAETPRSVLEEIGLT [R9C] | with no effect

Variants of: B4
Conditions: with gran_human GCA

Row | Variant | effect of a mutation on the interaction
5 | MLLGQKSQRYKAEEGLQAQGEAPGLMDVQIPTAEEQKAASSSSTLIMGTLEEVTDSGSPSPPQSPEGASSSLTVTDSTLWSQSDEGSSSNEEEGPSTSPDPAHLESLFREALDEKVAELVRFLLRKYQIKEPVTKAEMLESVIKNYKNHFPDIFSKASECMQVIFGIDVKEVDPAGHSYILVTCLGLSYDGLLGDDQSTPKTGLLIIVLGMILMEGSCAPEEAIWEALSVMGLYDGREHSVYWKLRKLLTQEWVQENYLEYRQAPGSDPVRYEFLWGPRALAETSYVKVLEHVVRVNARVRISYPSLHEEALGEEKGV [R218C] | with no effect
